Literature values, collected in paper PMC3359286.

Biological target: hemoglobin (Homo sapiens) (UniProt P69905)
Sequence (P69905 2-142, chain 1 of 2): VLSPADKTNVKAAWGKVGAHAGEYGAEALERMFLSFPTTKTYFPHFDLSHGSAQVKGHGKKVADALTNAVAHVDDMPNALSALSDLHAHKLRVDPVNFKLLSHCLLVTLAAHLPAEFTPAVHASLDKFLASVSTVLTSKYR
Sequence (P68871 2-147, chain 2 of 2, further chain): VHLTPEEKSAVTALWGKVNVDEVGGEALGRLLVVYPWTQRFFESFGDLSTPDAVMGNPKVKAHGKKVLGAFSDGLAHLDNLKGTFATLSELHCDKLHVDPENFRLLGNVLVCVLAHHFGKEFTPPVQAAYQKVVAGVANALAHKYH

IsdB (from UniProt A7X146)
Kd: 0.055 µM
